How the values were obtained:
[1] = target: ovalbumin-anti-ovalbumin immune complexes (OVA ICs); assay: cell-based or functional assay
[2] = target: heat-aggregated IgG (HAGG); assay: cell-based or functional assay

| IC50, TNF-α release from MC/9 cells induced by OVA ICs [1] [µg/mL] | fold potency against rsFcγRIIa monomer, MC/9 TNF-α release [1] [fold] | fold potency against BIF and M2, HAGG-induced platelet activation (CD41 and CD62P positive) [2] [fold] | fold potency against BIF and M2, loss of CD62L on human neutrophils induced by OVA ICs [1] [fold] | fold potency against Fc-tagged monomer (M2), MC/9 TNF-α release [1] [fold] | fold potency against the non-Fc tagged dimer, MC/9 TNF-α release [1] [fold] | Binder |
| --- | --- | --- | --- | --- | --- | --- |
| 2.1 | 8 |  |  |  |  | recombinant soluble FcγRIIa dimer (rsFcγRIIa dimer), head to tail homodimer construct of FIG. 1 (receptor) QAAAPPKAVLKLEPPWINVLQEDSVTLTCQGARSPESDSIQWFHNGNLIPTHTQPSYRFKANNNDSGEYTCQTGQTSLSDPVHLTVLSEWLVLQTPHLEFQEGETIMLRCHSWKDKPLVKVTFFQNGKSQKFSHLDPTFSIPQANHSHSGDYHCTGNIGYTLFSSKPVTITVQVPSMGSSSPVAPPKAVLKLEPPWINVLQEDSVTLTCQGARSPESDSIQWFHNGNLIPTHTQPSYRFKANNNDSGEYTCQTGQTSLSDPVHLTVLSEWLVLQTPHLEFQEGETIMLRCHSWKDKPLVKVTFFQNGKSQKFSHLDPTFSIPQANHSHSGDYHCTGNIGYTLFSSKPVTITVQVPSMGSSSPHHHHHH |
|  |  | ~3 | ~6 | 12 | 3 | recombinant soluble D2FcγRIIaFc (D2) protein (Fc fusion) QAAAPPKAVLKLEPPWINVLQEDSVTLTCQGARSPESDSIQWFHNGNLIPTHTQPSYRFKANNNDSGEYTCQTGQTSLSDPVHLTVLSEWLVLQTPHLEFQEGETIMLRCHSWKDKPLVKVTFFQNGKSQKFSHLDPTFSIPQANHSHSGDYHCTGNIGYTLFSSKPVTITVQVPSMGSSSPVAPPKAVLKLEPPWINVLQEDSVTLTCQGARSPESDSIQWFHNGNLIPTHTQPSYRFKANNNDSGEYTCQTGQTSLSDPVHLTVLSEWLVLQTPHLEFQEGETIMLRCHSWKDKPLVKVTFFQNGKSQKFSHLDPTFSIPQANHSHSGDYHCTGNIGYTLFSSKPVTITVQVPSMGSSSPPRGPTIKPCPPCKCPAPNLEGGPSVFIFPPKIKDVLMISLSPIVTCVVVDVSEDDPDVQISWFVNNVEVHTAQTQTHREDYNSTLRVVSALPIQHQDWMSGKAFACAVNNKDLPAPIERTISKPKGSVRAPQVYVLPPPEEEMTKKQVTLTCMVTDFMPEDIYVEWTNNGKTELNYKNTEPVLDSDGSYFMYSKLRVEKKNWVERNSYSCSVVHEGLHNHHTTKSFSRTPGK |
